In patent US20080193971:

Assays:
[1] = target: T1, GNA1870 surface-exposed lipoprotein, Q9JXV4
T1 chain: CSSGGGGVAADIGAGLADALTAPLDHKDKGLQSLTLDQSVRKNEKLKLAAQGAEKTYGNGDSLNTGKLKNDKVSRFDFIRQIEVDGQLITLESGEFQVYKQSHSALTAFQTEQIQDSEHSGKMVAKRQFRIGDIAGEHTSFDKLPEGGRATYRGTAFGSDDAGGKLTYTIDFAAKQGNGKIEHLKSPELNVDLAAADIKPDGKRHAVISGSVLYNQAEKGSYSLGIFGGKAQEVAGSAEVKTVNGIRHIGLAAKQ

[2] = target: T2, meningococcal protein 287 (purified)
T2 chain: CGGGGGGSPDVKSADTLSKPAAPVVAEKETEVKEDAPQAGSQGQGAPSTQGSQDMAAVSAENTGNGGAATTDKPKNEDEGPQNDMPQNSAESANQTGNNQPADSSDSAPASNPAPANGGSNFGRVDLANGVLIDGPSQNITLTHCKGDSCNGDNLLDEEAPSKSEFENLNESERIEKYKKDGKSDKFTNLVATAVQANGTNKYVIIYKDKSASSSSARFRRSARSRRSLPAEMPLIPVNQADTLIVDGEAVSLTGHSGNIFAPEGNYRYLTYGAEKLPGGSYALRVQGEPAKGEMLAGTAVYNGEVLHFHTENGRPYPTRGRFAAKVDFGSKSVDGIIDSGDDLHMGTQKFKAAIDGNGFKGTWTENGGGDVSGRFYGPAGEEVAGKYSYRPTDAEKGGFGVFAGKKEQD

[3] = target: T3, recombinant App (Adhesion and penetration protein)
T3 chain: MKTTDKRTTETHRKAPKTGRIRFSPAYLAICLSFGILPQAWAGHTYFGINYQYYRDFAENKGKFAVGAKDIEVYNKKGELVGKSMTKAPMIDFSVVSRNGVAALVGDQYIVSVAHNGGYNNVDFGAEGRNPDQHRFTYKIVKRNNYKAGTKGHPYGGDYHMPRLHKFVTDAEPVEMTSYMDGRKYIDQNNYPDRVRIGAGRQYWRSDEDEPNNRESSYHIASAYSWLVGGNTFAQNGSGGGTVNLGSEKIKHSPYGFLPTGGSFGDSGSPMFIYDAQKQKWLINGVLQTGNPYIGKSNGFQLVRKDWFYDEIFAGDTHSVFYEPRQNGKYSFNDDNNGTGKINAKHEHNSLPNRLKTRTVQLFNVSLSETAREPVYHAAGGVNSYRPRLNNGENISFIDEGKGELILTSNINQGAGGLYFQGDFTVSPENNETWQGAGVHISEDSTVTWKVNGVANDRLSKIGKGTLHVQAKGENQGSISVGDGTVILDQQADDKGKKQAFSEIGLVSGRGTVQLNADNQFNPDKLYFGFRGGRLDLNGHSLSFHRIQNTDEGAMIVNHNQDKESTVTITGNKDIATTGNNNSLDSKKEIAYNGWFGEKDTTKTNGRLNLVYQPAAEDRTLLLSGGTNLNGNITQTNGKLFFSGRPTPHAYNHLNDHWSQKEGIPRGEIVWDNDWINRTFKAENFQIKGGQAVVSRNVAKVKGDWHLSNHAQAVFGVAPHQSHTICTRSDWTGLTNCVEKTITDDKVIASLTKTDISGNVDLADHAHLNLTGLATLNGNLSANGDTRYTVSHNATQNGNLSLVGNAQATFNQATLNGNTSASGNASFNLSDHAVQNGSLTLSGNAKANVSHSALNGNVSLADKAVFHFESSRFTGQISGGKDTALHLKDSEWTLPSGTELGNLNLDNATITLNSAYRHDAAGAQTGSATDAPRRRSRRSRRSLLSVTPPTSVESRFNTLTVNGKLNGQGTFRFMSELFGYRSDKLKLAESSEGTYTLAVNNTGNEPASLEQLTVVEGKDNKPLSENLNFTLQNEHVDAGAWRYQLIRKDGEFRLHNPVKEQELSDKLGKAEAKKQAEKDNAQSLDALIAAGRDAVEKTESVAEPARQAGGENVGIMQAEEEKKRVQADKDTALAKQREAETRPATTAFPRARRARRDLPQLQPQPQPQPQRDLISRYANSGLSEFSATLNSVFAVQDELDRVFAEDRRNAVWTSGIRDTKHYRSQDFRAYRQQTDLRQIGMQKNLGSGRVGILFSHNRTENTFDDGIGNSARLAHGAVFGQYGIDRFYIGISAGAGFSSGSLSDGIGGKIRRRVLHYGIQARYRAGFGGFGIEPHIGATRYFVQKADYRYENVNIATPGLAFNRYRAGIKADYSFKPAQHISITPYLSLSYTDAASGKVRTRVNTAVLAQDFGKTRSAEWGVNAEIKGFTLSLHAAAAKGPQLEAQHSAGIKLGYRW

B1: human lactoferrin (protein)
chain: GRRRSVQWCAVSQPEATKCFQWQRNMRKVRGPPVSCIKRDSPIQCIQAIAENRADAVTLDGGFIYEAGLAPYKLRPVAAEVYGTERQPRTHYYAVAVVKKGGSFQLNELQGLKSCHTGLRRTAGWNVPIGTLRPFLNWTGPPEPIEAAVARFFSASCVPGADKGQFPNLCRLCAGTGENKCAFSSQEPYFSYSGAFKCLRDGAGDVAFIRESTVFEDLSDEAERDEYELLCPDNTRKPVDKFKDCHLARVPSHAVVARSVNGKEDAIWNLLRQAQEKFGKDKSPKFQLFGSPSGQKDLLFKDSAIGFSRVPPRIDSGLYLGSGYFTAIQNLRKSEEEVAARRARVVWCAVGEQELRKCNQWSGLSEGSVTCSSASTTEDCIALVLKGEADAMSLDGGYVYTAGKCGLVPVLAENYKSQQSSDPDPNCVDRPVEGYLAVAVVRRSDTSLTWNSVKGKKSCHTAVDRTAGWNIPMGLLFNQTGSCKFDEYFSQSCAPGSDPRSNLCALCIGDEQGENKCVPNSNERYYGYTGAFRCLAENAGDVAFVKDVTVLQNTDGNNNEAWAKDLKLADFALLCLDGKRKPVTEARSCHLAMAPNHAVVSRMDKVERLKQVLLHQQAKFGRNGSDCPDKFCLFQSETKNLLFNDNTECLARLHGKTTYEKYLGPQYVAGITNLKKCSTSPLLEACEFLRK
How did the “proteolytic degradation on meningococci (western blot with anti-GNA1870)” value [1] turn out when B1 was run?
The value was “lactoferrin treatment under conditions which degrade App had no effect on ONA1870”.

What about the “proteolytic cleavage (SDS-PAGE and western blot with rabbit anti-287)” value [2] of the same protein?
The value was “Lane 3 shows definite cleavage of protein 287”.

And the “share of N-terminus RSLPAEMPL in the ~19 kDa cleavage fragment” value [2]?
The value was “RSLPAEMPL (˜30%)”.

And the “share of N-terminus SLPAEMPLI in the ~19 kDa cleavage fragment” value [2]?
The value was “SLPAEMPLI (˜70%)”.

And the “proteolytic cleavage (western blot with anti-App)” value [3]?
Its value is “the App antigen was cleaved in different fragments”.
